Patent US9498540B2, “Cell proliferation inhibitors and conjugates thereof” (NOVARTIS AG, priority 2013, dated 2016)
“And” between values parts separate entries of the source, which are not always exact repeats. Identical values can stand only once.

Columns and labels:
[1] = Average drug loading (DAR, drug to antibody ratio) from LC/MS of reduced, deglycosylated conjugates; conditions: conjugate with trastuzumab (TBS); average number of payload molecules per antibody
Text: The immunoconjugates prepared as described above were characterized by LC/MS, as illustrated in FIG. 1 for one immunoconjugate. […] The conjugates were characterized in terms of average drug loading for a sample (DAR, drug to antibody ratio) and aggregation (expressed in %).
The DAR value is extrapolated from LC-MS data for reduced and deglycosylated samples. […] HPLC separates the antibody into light and heavy chains, and separates the heavy chain (HC) and light chain (LC) according to the number of Linker-Payload groups per chain. Mass spectral data enables identification of the component species in the mixture, e.g., LC, LC+1, LC+2, HC, HC+1, HC+2, etc. From the average loading on the LC and HC chains, the average drug to antibody ratio (DAR) can be calculated for an ADC (see FIG. 1B). The DAR for a given conjugate sample represents the average number of drug (payload) molecules attached to a tetrameric antibody containing two light chains and two heavy chains.

[2] = Aggregation of immunoconjugates by analytical size exclusion chromatography; assay type: physicochemical; conditions: conjugate with trastuzumab (TBS); Superdex 200 5/150 GL run in PBS
Procedure: Aggregation was measured by analytical size exclusion chromatography (Superdex 200 5/150 GL run in PBS). It was observed that the extent of aggregation depends on the Linker-Payload and the DAR. […] Table 4 also indicates whether the linking group for each conjugate is stable or cleavable.

Compound | DAR [1] | Aggregation % [2]
COC[C@@H](N)CCN(C(=O)[C@H](C)O)[C@@H](c1nc(-c2cc(F)ccc2F)cn1Cc1ccccc1)C(C)(C)C [Compound 60] | 6.4 | 71.7%
C[C@H](O)C(=O)N(CC[C@@H](N)CF)[C@@H](c1nc(-c2cc(F)ccc2F)nn1Cc1ccccc1)C(C)(C)C [Compound 8] | 3.2 | 1.4%
CC(C)(C)[C@H](c1nc(-c2cc(F)ccc2F)cn1Cc1ccccc1)N(CC[C@H](N)CF)C(=O)CO [Compound 2] | 4.2 | 43.8%
C[C@H](O)C(=O)N(CC[C@H](N)CF)[C@@H](c1nc(-c2cc(F)ccc2F)cn1Cc1ccccc1)C1CCOCC1 [Compound 46] | 4.7 | 74.1%
CC(C)(C)[C@H](c1nc(-c2cc(F)ccc2F)nn1Cc1ccccc1)N(CC[C@H](N)CF)C(=O)N1CCSCC1 [Compound 10] | 5 | 47%
C[C@H](O)C(=O)N(C[C@@H]1CNC[C@@H]1F)[C@@H](c1nc(-c2cc(F)ccc2F)cn1Cc1ccccc1)C1CCS(=O)(=O)CC1 [Compound 38] | 5.8 | 67.2%
CCOC(C)(C)[C@H](c1nc(-c2cc(F)ccc2F)cn1Cc1cccc(F)c1)N(C[C@@H]1CNC[C@@H]1F)C(=O)[C@H](C)O [Compound 75] | 2.9 | 69.4%
C[C@H](O)C(=O)N(C[C@H]1CNC[C@H]1F)[C@@H](c1nc(-c2cc(F)ccc2F)cn1Cc1ccccc1)C1CCOCC1 [Compound 53] | 2.7 | 25.7%
CNC(=O)N(C[C@@H]1CNC[C@@H]1F)[C@@H](c1nc(-c2cc(F)ccc2F)cn1Cc1cccc(F)c1)C(C)(C)C [Compound 40] | 4 | 9.3%
C[C@H](O)C(=O)N(CC[C@@H](C)N)[C@@H](c1nc(-c2cc(F)ccc2F)cn1Cc1ccccc1)C(C)(C)C [Compound 35] | 3 | 44.3%
N[C@H](CF)CCN(C(=O)CO)[C@@H](c1nc(-c2cc(F)ccc2F)cn1Cc1ccccc1)C1CCOCC1 [Compound 23] | 3.1 | 66.8%
COC(=O)N(C[C@@H](F)CN)[C@@H](c1nc(-c2cc(F)ccc2F)cn1Cc1ccccc1)C(C)(C)C [Compound 41] | 4.5 | 23.8%
CC(C)(C)[C@H](c1nc(-c2cc(F)ccc2F)cn1Cc1ccccc1)N(CC[C@H]1COCCN1)C(=O)CO [Compound 5] | 5.4 | 48.7%
NCCSCC(=O)N(C[C@@H]1CNC[C@@H]1F)[C@@H](c1nc(-c2cc(F)ccc2F)cn1Cc1ccccc1)C1CCOCC1 [Compound 18] | 3 | 58.4%
CC(C)(C)[C@H](c1nc(-c2cc(F)ccc2F)nn1Cc1ccccc1)N(CCCN)C(=O)N1CCC[C@H]1CO [Compound 28] | 3.6 | 63.6%
O=C(N1C[C@@H](O)[C@@H](O)C1)N(C[C@@H]1CNC[C@@H]1F)[C@@H](c1nc(-c2cc(F)ccc2F)cn1Cc1ccccc1)C1CCOCC1 [Compound 56] | 4.1 | 45.1%
CC(C)(C)OC(=O)N1C[C@@H](CN(C(=O)CI)[C@@H](c2nc(-c3cc(F)ccc3F)cn2Cc2cccc(F)c2)C(C)(C)C)[C@@H](F)C1 [Compound 31] | 5.8 | 10.6%
CC(C)(C)[C@H](c1nc(-c2cc(F)ccc2F)cn1Cc1ccccc1)N(CC[C@H](N)CF)C(=O)NO [Compound 22] | 6 | 84.5%
C[C@H](O)C(=O)N(CC[C@@H](N)CF)[C@@H](c1nc(-c2cc(F)ccc2F)cn1Cc1ccccc1)C(C)(C)C [Compound 29] | 2.8 | 2.9%
COC(C)(C)[C@H](c1nc(-c2cc(F)ccc2F)cn1Cc1cccc(F)c1)N(C[C@@H]1CNC[C@@H]1F)C(=O)[C@H](C)O [Compound 54] | 3.1 | 2.5%
C[C@@H](CO)NC(=O)N(C[C@@H]1CNC[C@@H]1F)[C@@H](c1nc(-c2cc(F)ccc2F)cn1Cc1ccccc1)C1CCOCC1 [Compound 17] | 5.8 | 55%
CC(C)(C)[C@H](c1nc(-c2cc(F)ccc2F)cn1Cc1cccc(F)c1)N(C[C@@H]1CNC[C@@H]1F)C(=O)COCCN [Compound 76] | 3.1 | 48.5%
CC(C)(C)[C@H](c1nc(-c2cc(F)ccc2F)cn1Cc1ccccc1)N(C[C@@H](F)CN)C(=O)N1CCN(S(C)(=O)=O)CC1 [Compound 21] | 4.7 | 39.7%
C[C@H](O)C(=O)N(C[C@@H]1CNC[C@@H]1F)[C@@H](c1nc(-c2cc(F)ccc2F)cn1Cc1cccc(F)c1)C(C)(C)C [Compound 14] | 2.8 | 1.5%

Compound | DAR [1] | Aggregation % [2]
NCCCCCCSCC(=O)N(C[C@@H]1CNC[C@@H]1F)[C@@H](c1nc(-c2cc(F)ccc2F)cn1Cc1ccccc1)C1CCOCC1 [Compound 57] | 5 | 57%
CC(C)(C)[C@H](c1nc(-c2cc(F)ccc2F)cn1Cc1ccccc1)N(CCC1(N)CC1)C(=O)[C@@H]1CCCO1 [Compound 30] | 3.9 | 2.5%
CC(C)(C)[C@H](c1nc(-c2cc(F)ccc2F)cn1Cc1ccccc1)N(CC[C@H](N)CF)C(=O)CN [Compound 1] | 5 | 75.8%
CC(C)(C)[C@H](c1nc(-c2cc(F)ccc2F)nn1Cc1ccccc1)N(CCCN)C(=O)c1cccnc1 [Compound 64] | 2.9 | 49.3%
CC(C)(C)[C@H](c1nc(-c2cc(F)ccc2F)nn1Cc1ccccc1)N(CCCN)C(=O)N1CCN(S(C)(=O)=O)CC1 [Compound 44] | 4.8 | 41%
CNC(=O)N(CC[C@H]1COCCN1)[C@@H](c1nc(-c2cc(F)ccc2F)cn1Cc1ccccc1)C(C)(C)C [Compound 4] | 4.8 | 72.9%
CC(C)(C)[C@H](c1nc(-c2cc(F)ccc2F)cn1Cc1cccc(F)c1)N(C[C@@H]1CNC[C@@H]1F)C(=O)CCS [Compound 67] | 3.4 | 63.2%
C[C@@H]1CN(C(=O)N(C[C@@H]2CNC[C@@H]2F)[C@@H](c2nc(-c3cc(F)ccc3F)nn2Cc2cccc(F)c2)C(C)(C)C)C[C@H](C)O1 [Compound 26] | 2.6 | 33.5%
O=C(NC[C@H](O)CO)N(C[C@@H]1CNC[C@@H]1F)[C@@H](c1nc(-c2cc(F)ccc2F)cn1Cc1ccccc1)C1CCOCC1 [Compound 74] | 3 | 39.1%
CC(C)(C)[C@H](c1nc(-c2cc(F)ccc2F)cn1Cc1ccccc1)N(CC[C@H]1COCCN1)C(=O)c1cccnc1 [Compound 36] | 2.6 | 40%
CC(C)(C)[C@H](c1nc(-c2cc(F)ccc2F)cn1Cc1ccccc1)N(CC[C@H](N)CF)C(=O)N1CCN(S(C)(=O)=O)CC1 [Compound 42] | 6 | 2.4%
CC(C)(C)[C@H](c1nc(-c2cc(F)ccc2F)cn1Cc1ccccc1)N(CC[C@@H]1COCCN1)C(=O)CO [Compound 6] | 3 | 67.2%
CC(C)(C)[C@@H](NC[C@@H]1CNC[C@@H]1F)c1nc(-c2cc(F)ccc2F)nn1Cc1cccc(F)c1 [Compound 33] | 6.3 | 29.8%
COC(C)(C)[C@H](c1nc(-c2cc(Cl)ccc2F)cn1Cc1cccc(F)c1)N(C[C@@H]1CN[C@H](CF)C1)C(=O)c1cc(C)nn1C [Compound 59] | 5.2 | 71%
C[C@H](O)C(=O)N(CC[C@H](N)CF)[C@@H](c1nc(-c2cc(F)ccc2F)cn1CC1CCOCC1)C(C)(C)C [Compound 11] | 4 | 4%
C[C@@H]1CN(C(=O)N(CCCN)[C@@H](c2nc(-c3cc(F)ccc3F)nn2Cc2ccccc2)C(C)(C)C)C[C@H](C)O1 [Compound 3] | 5.4 | 52.5%
CC(C)(C)[C@H](c1nc(-c2cc(F)ccc2F)cn1Cc1ccccc1)N(CC[C@H](N)CF)C(=O)CO[C@@H]1O[C@H](C(=O)O)[C@@H](O)[C@H](O)[C@H]1O [Compound 55] | 3.8 | 11.5%
C[C@H](O)C(=O)N(C[C@@H]1CNC[C@H]1O)[C@@H](c1nc(-c2cc(F)ccc2F)cn1Cc1ccccc1)C1CCOCC1 [Compound 48] | 4.4 and 5.2 | 63.8% and 35.3%
O=C(c1ccccn1)N(C[C@@H]1CN[C@H](CF)C1)[C@@H](c1nc(-c2cc(F)ccc2F)cn1Cc1ccccc1)C1CCOCC1 [Compound 65] | 3.2 | 11.4%
CC(C)(C)[C@H](c1nc(-c2cc(F)ccc2F)cn1Cc1cccc(F)c1)N(C[C@@H]1CNC[C@@H]1F)C(=O)CSCCN [Compound 16] | 7.4 | 20.4%
C[C@H](O)C(=O)N(CC[C@H](N)CF)[C@@H](c1nc(-c2cc(F)ccc2F)cn1Cc1ccccc1)C(C)(C)C [Compound 71] | 2.9 | 2.6%
C[C@H](O)C(=O)N(CC[C@H](N)CF)[C@@H](c1nc(-c2cc(F)ccc2F)cn1CC1(C)COC1)C(C)(C)C [Compound 34] | 4.4 | 50.5%
C[C@H](O)C(=O)N(C[C@H]1CCNC1)[C@@H](c1nc(-c2cc(F)ccc2F)cn1Cc1ccccc1)C1CCOCC1 [Compound 32] | 5.2 | 1.4%
